Experimental findings from US20070036814A1 are described below.

One assay has as its target fibrinogen. Kind of assay: cell-based or functional assay.
Assay [1] addresses canine fibrinogen (canine) (UniProt P68213). The experiment in a line: cell-based or functional assay.

“CIfA protein on the surface of S. aureus strain Newman cells (from UniProt Q53653 40-899) (receptor)”: the titre in microtitre clumping assay (Newman wild-type) with fibrinogen stood at 2048 titre. In assay [1], the decrease in attachment of the fibrinogen receptor mutant to ex vivo polyvinyl chloride and polyethylene tubings exposed to canine blood was over 80%; the loss of adherence of the fibrinogen receptor mutant (cIfA::Tn917) to canine fibrinogen coated PMMA coverslips is over 95%. As for “glutathione S-transferase fusion protein of CIfA Region A (residues 23-550) expressed from pCF24 (from UniProt Q53653 23-550)”, the Inhibiting concentration, inhibition of clumping by lysate with fibrinogen amounted to 9.37 micro g. In the case of “glutathione S-transferase fusion protein of CIfA regions R, W and M (residues 546-933) expressed from pCF25 (from UniProt Q53653 546-933)”, the Inhibiting concentration, inhibition of clumping by lysate with fibrinogen was over 300 micro g. “glutathione S-transferase fusion protein of CIfA residues 221-550 expressed from pCF31 (from UniProt Q53653 221-550)” registered an Inhibiting concentration, inhibition of clumping by lysate in the assay with fibrinogen of 9.37 micro g.
